Experimental data reported in patent US11278600B2, “Human alpha-galactosidase variants” (Codexis, Inc., priority 2014, dated 2022).
Numbering of substitutions follows the chain as printed.

Tests used:
Assay type in all cases: biochemical
[1] = HTP-analysis of yeast culture supernatants, no challenge (MUGal hydrolysis)
In short: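 GLA variants expressed in yeast INVSc1, secreted into SD-Ura broth over 66-84 h at 30° C; clarified supernatants tested without challenge. Supernatant mixed with McIlvaine buffer pH 4.8 and 2 mM MUGal (citrate/KCl, pH 4.6), 37° C for 30-180 min, carbonate-quenched, fluorescence Ex 355/Em 448 nm.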

[2] = HTP-analysis of supernatants pretreated with acid (MUGal hydrolysis); settings: for Relative Activity of GLA Variants After Challenge at pH 3.3: activity of the variant/activity of Rd3BB (SEQ ID NO: 13), yeast supernatant; for Relative Activity of GLA Variants After Challenge at pH 3.5: activity of the variant/activity of Rd7BB (SEQ ID NO: 44)
In short: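 Fluorescence of MUGal hydrolysis (Ex. 355 nm, Em. 448 nm) is read after sodium carbonate quench. The enzyme source is INVSc1 yeast culture supernatant, first exposed to pH 3.3-4.3 McIlvaine buffer at 37° C. for 1-3 h, then reacted at pH 4.8 for 30-180 minutes.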

[3] = HTP-analysis of supernatants pretreated with base (MUGal hydrolysis); settings: for Relative Activity of GLA Variants After Challenge at pH 9.7: activity of the variant/activity of Rd3BB (SEQ ID NO: 13), yeast supernatant; for Relative Activity of GLA Variants After Challenge at pH 7.5: activity of the variant/activity of Rd7BB (SEQ ID NO: 44)
In short: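 Supernatants from INVSc1 yeast expressing GLA variants (SD-Ura, 66-84 h, 30° C) were mixed with McIlvaine buffer pH 7.0-8.2 or 200 mM sodium bicarbonate pH 9.1-9.7 and held 1-18 h at 37° C. Residual activity was then measured on MUGal at pH 4.8/4.3, 37° C, 30-180 min, by fluorescence (Ex 355/Em 448 nm).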

[4] = activity of the variant/activity of Rd3BB (SEQ ID NO: 13), yeast supernatant
[5] = activity of the variant/activity of Rd7BB (SEQ ID NO: 44)

B1: 622 (protein)
chain: LDNGLARTPTMGWLHWERFMCNLDCQEEPDSCISEKLFMEMAERMVNEGWKDAGYEYLCIDDCWMAPQRDSEGRLQADPQRFPHGIRQLANHVHSKGLKLGIYADVGNKTCAGFPGSFGYYDIDAQTFADWGVDLLKFDGCYCDSLENLADGYKHMSLALNRTGRPIVYSCEWPLYMWPFQKPNYTEIRQYCNHWRNFADIDDSWASIKSILDWTSRNQERIVDVAGPGGWNDPDMLVIGNFGLSWDQQVTQMALWAIWAAPLFMSNDLRAISPQAKALLQDKDVIAINQDPLGKQGYQLRKGDNFEVWERPLSGDAWAVAIINRQEIGGPRSYTIPVASLGKGVACNPACFITQLLPVKRQLGFYNWTSRLKSHINPTGTVLLQLENTQQTSLKDLL
modifications: Synthetic Polypeptide sequence of Variant No. 622 of mature Human GLA
For B1, the “Relative Activity of GLA Variants After No Challenge (NC)” value [1, 4] was “+ (+ = 1.5 to 5 relative activity over Rd3BB (SEQ ID NO: 13))”, the “Relative Activity of GLA Variants After Challenge at pH 3.3” value (from here on “Relative Activity … at pH 3.3”) [2] was “− (− = <1.5 relative activity to Rd3BB (SEQ ID NO: 13))” and the “Relative Activity of GLA Variants After Challenge at pH 9.7” value (shortened to “Relative Activity … at pH 9.7”) [3] was “++ (++ = >5 to 10 relative activity over Rd3BB (SEQ ID NO: 13))”.

B2: 624 (protein)
chain: B1 chain with H92Y, W259M, T392M
modifications: Synthetic Polypeptide sequence of Variant No. 624 of mature Human GLA
For B2, the “Relative Activity of GLA Variants After No Challenge (NC)” value [1, 4] was “+ (+ = 1.5 to 5 relative activity over Rd3BB (SEQ ID NO: 13))”, the “Relative Activity … at pH 3.3” value [2] was “++ (++ = >5 to 10 relative activity over Rd3BB (SEQ ID NO: 13))” and the “Relative Activity … at pH 9.7” value [3] was “++ (++ = >5 to 10 relative activity over Rd3BB (SEQ ID NO: 13))”.

B3: 630 (protein)
chain: B1 chain with N47T, Q390H, T392M
modifications: Synthetic Polypeptide sequence of Variant No. 630 of mature Human GLA
With B3 the “Relative Activity of GLA Variants After No Challenge (NC)” value [1, 4] was “+ (+ = 1.5 to 5 relative activity over Rd3BB (SEQ ID NO: 13))”, the “Relative Activity … at pH 3.3” value [2] was “− (− = <1.5 relative activity to Rd3BB (SEQ ID NO: 13))” and the “Relative Activity … at pH 9.7” value [3] was “++ (++ = >5 to 10 relative activity over Rd3BB (SEQ ID NO: 13))”.

B4: 627 (protein)
chain: B1 chain with Q390H
modifications: Synthetic Polypeptide sequence of Variant No. 627 of mature Human GLA
For B4, the “Relative Activity of GLA Variants After No Challenge (NC)” value [1, 4] was “+ (+ = 1.5 to 5 relative activity over Rd3BB (SEQ ID NO: 13))”, the “Relative Activity … at pH 3.3” value [2] was “− (− = <1.5 relative activity to Rd3BB (SEQ ID NO: 13))” and the “Relative Activity … at pH 9.7” value [3] was “++ (++ = >5 to 10 relative activity over Rd3BB (SEQ ID NO: 13))”.

B5: 631 (protein)
chain: B1 chain with N47T, W259M, T392M
modifications: Synthetic Polypeptide sequence of Variant No. 631 of mature Human GLA
For B5, the “Relative Activity of GLA Variants After No Challenge (NC)” value [1, 4] was “+ (+ = 1.5 to 5 relative activity over Rd3BB (SEQ ID NO: 13))”, the “Relative Activity … at pH 3.3” value [2] was “+ (+ = 1.5 to 5 relative activity over Rd3BB (SEQ ID NO: 13))” and the “Relative Activity … at pH 9.7” value [3] was “++ (++ = >5 to 10 relative activity over Rd3BB (SEQ ID NO: 13))”.

B6: 632 (protein)
chain: B1 chain with W259M, Q390M
modifications: Synthetic Polypeptide sequence of Variant No. 632 of mature Human GLA
In the case of B6, the “Relative Activity of GLA Variants After No Challenge (NC)” value [1, 4] is reported as “+ (+ = 1.5 to 5 relative activity over Rd3BB (SEQ ID NO: 13))”, the “Relative Activity … at pH 3.3” value [2] is reported as “++ (++ = >5 to 10 relative activity over Rd3BB (SEQ ID NO: 13))” and the “Relative Activity … at pH 9.7” value [3] is reported as “++ (++ = >5 to 10 relative activity over Rd3BB (SEQ ID NO: 13))”.

B7: 623 (protein)
chain: B1 chain with H92Y, W259M, A276S, Q390M
modifications: Synthetic Polypeptide sequence of Variant No. 623 of mature Human GLA
For B7, the “Relative Activity of GLA Variants After No Challenge (NC)” value [1, 4] was “+ (+ = 1.5 to 5 relative activity over Rd3BB (SEQ ID NO: 13))”, the “Relative Activity … at pH 3.3” value [2] was “+++ (+++ = >10 relative activity over Rd3BB (SEQ ID NO: 13))” and the “Relative Activity … at pH 9.7” value [3] was “++ (++ = >5 to 10 relative activity over Rd3BB (SEQ ID NO: 13))”.

B8: 662 (protein)
chain: B1 chain with N47T, V238I, W259M, Q390M
modifications: Synthetic Polypeptide sequence of Variant No. 662 of mature Human GLA
With B8 the “Relative Activity of GLA Variants After No Challenge (NC)” value [1, 5] was “+ (>0.5 to 1.5 relative activity over Rd7BB (SEQ ID NO: 44))”, the “Relative Activity of GLA Variants After Challenge at pH 3.5” value (“Relative Activity … at pH 3.5” below) [2] was “+ (>0.5 to 1.5 relative activity over Rd7BB (SEQ ID NO: 44))” and the “Relative Activity of GLA Variants After Challenge at pH 7.5” value (from here on “Relative Activity … at pH 7.5”) [3] was “+ (>0.5 to 1.5 relative activity over Rd7BB (SEQ ID NO: 44))”.

B9: 663 (protein)
chain: B1 chain with E43D, N47T, W259M, A261G, W368A, Q390M
modifications: Synthetic Polypeptide sequence of Variant No. 663 of mature Human GLA
For B9, the “Relative Activity of GLA Variants After No Challenge (NC)” value [1, 5] was “+ (>0.5 to 1.5 relative activity over Rd7BB (SEQ ID NO: 44))”, the “Relative Activity … at pH 3.5” value [2] was “+ (>0.5 to 1.5 relative activity over Rd7BB (SEQ ID NO: 44))” and the “Relative Activity … at pH 7.5” value [3] was “− (<0.5 relative activity to Rd7BB (SEQ ID NO: 44))”.

B10: 629 (protein)
chain: B1 chain with N47T, H92Y, W259M, T392M
modifications: Synthetic Polypeptide sequence of Variant No. 629 of mature Human GLA
With B10 the “Relative Activity of GLA Variants After No Challenge (NC)” value [1, 4] was “+ (+ = 1.5 to 5 relative activity over Rd3BB (SEQ ID NO: 13))”, the “Relative Activity … at pH 3.3” value [2] was “++ (++ = >5 to 10 relative activity over Rd3BB (SEQ ID NO: 13))” and the “Relative Activity … at pH 9.7” value [3] was “++ (++ = >5 to 10 relative activity over Rd3BB (SEQ ID NO: 13))”.

B11: 625 (protein)
chain: B1 chain with N47T, W259M, Q390M
modifications: Synthetic Polypeptide sequence of Variant No. 625
For B11, the “Relative Activity of GLA Variants After No Challenge (NC)” value [1, 4] was “+ (+ = 1.5 to 5 relative activity over Rd3BB (SEQ ID NO: 13))”, the “Relative Activity … at pH 3.3” value [2] was “++ (++ = >5 to 10 relative activity over Rd3BB (SEQ ID NO: 13))” and the “Relative Activity … at pH 9.7” value [3] was “++ (++ = >5 to 10 relative activity over Rd3BB (SEQ ID NO: 13))”.

B12: 661 (protein)
chain: B1 chain with N47T, W195C, W259M, Q390M
modifications: Synthetic Polypeptide sequence of Variant No. 661 of mature Human GLA
For B12, the “Relative Activity of GLA Variants After No Challenge (NC)” value [1, 5] was “− (<0.5 relative activity to Rd7BB (SEQ ID NO: 44))”, the “Relative Activity … at pH 3.5” value [2] was “− (<0.5 relative activity to Rd7BB (SEQ ID NO: 44))” and the “Relative Activity … at pH 7.5” value [3] was “− (<0.5 relative activity to Rd7BB (SEQ ID NO: 44))”.

B13: 626 (protein)
chain: B1 chain with N47S, W259M, T392M
modifications: Synthetic Polypeptide sequence of Variant No. 626 of mature Human GLA
For B13, the “Relative Activity of GLA Variants After No Challenge (NC)” value [1, 4] was “+ (+ = 1.5 to 5 relative activity over Rd3BB (SEQ ID NO: 13))”, the “Relative Activity … at pH 3.3” value [2] was “++ (++ = >5 to 10 relative activity over Rd3BB (SEQ ID NO: 13))” and the “Relative Activity … at pH 9.7” value [3] was “++ (++ = >5 to 10 relative activity over Rd3BB (SEQ ID NO: 13))”.

B14: 609 (protein)
chain: B1 chain with N47S, H92Y, W259M, A271H, Q390M, T392M
modifications: Synthetic Polypeptide sequence of Variant No. 609 of mature Human GLA
For B14, the “Relative Activity of GLA Variants After No Challenge (NC)” value [1, 4] was “+ (+ = 1.5 to 5 relative activity over Rd3BB (SEQ ID NO: 13))”, the “Relative Activity … at pH 3.3” value [2] was “++ (++ = >5 to 10 relative activity over Rd3BB (SEQ ID NO: 13))” and the “Relative Activity … at pH 9.7” value [3] was “++ (++ = >5 to 10 relative activity over Rd3BB (SEQ ID NO: 13))”.

B15: 660 (protein)
chain: B1 chain with M39E, N47T, W259M, A261G, N305L, Q390M
modifications: Synthetic Polypeptide sequence of Variant No. 660 of mature Human GLA
With B15 the “Relative Activity of GLA Variants After No Challenge (NC)” value [1, 5] was “+ (>0.5 to 1.5 relative activity over Rd7BB (SEQ ID NO: 44))”, the “Relative Activity … at pH 3.5” value [2] was “+ (>0.5 to 1.5 relative activity over Rd7BB (SEQ ID NO: 44))” and the “Relative Activity … at pH 7.5” value [3] was “− (<0.5 relative activity to Rd7BB (SEQ ID NO: 44))”.

B16: 628 (protein)
chain: B1 chain with W259M, Q390H, T392M
modifications: Synthetic Polypeptide sequence of Variant No. 628 of mature Human GLA
For B16, the “Relative Activity of GLA Variants After No Challenge (NC)” value [1, 4] was “+ (+ = 1.5 to 5 relative activity over Rd3BB (SEQ ID NO: 13))”, the “Relative Activity … at pH 3.3” value [2] was “+ (+ = 1.5 to 5 relative activity over Rd3BB (SEQ ID NO: 13))” and the “Relative Activity … at pH 9.7” value [3] was “++ (++ = >5 to 10 relative activity over Rd3BB (SEQ ID NO: 13))”.
